{"source": "patent US20070218051A1", "about": "“Epitope peptides immunogenic against Streptococcus pneumoniae” (Sarvamangala J N Devi, priority 1998, published 2007)", "key": {"[1]": {"test_system": "virulent capsular type 3 Streptococcus pneumoniae strain, WU2", "assay": "Protection experiment, Example 4: active immunization of xid mice, challenge with WU2", "assay_type": "in vivo", "conditions": "CBA/CaHN/J xid mice; about 22 μg s.c. in CFA, 100 μg IP 14 days later; IV challenge 60 CFU WU2; observed 21 days", "method": "CBA/CaHN/J Mice. X-linked immune deficiency (xid) CBA/N mice as described by Wicker et al., Curr. Top. Microbiol, Immunol. 124:86-[0] were used to study the protection afforded by the 37-kDa protein.\nTwenty CBA/CaHN/J mice carrying the xid mutation […] immunodeficiency) were used in this protection study. They were tested for protection against challenge with a virulent capsulan type 3 Streptococcus pneumoniae strain, WU2. Mice were anesthetized with Ketamine/Rompum and bled infraorbitally to obtain pre-immunization sera. 37-kDa protein (pneumococcal surface adhesin A) was emulsified in complete Freund's adjuvant (CFA) to a protein concentration of 54 μg per ml. Ten mice were injected subcutaneously into 2 axillary and 2 inguinal sites at 0.1 ml per site, delivering approximately 22 μg protein/mouse. Ten control mice were treated identically with CFA and buffer substituting for protein. Fourteen days later, the ten test mice were injected intraperitoneally (IP) with 100 μg of the 37-kDa protein; controls were injected IP with buffer. Eight days following the IP immunizations, all mice were bled infraorbitally to obtain post-immunization sera, and challenged intravenously (IV) with 60 CFU of a log phase culture of S. pneumoniae strain WU2. […]"}, "[2]": {"test_system": "S. pneumoniae type 3 strain, WU2", "assay": "Protection experiment, Example 5: active immunization of xid mice, challenge with WU2", "assay_type": "in vivo, Streptococcus pneumoniae", "conditions": "CBA/CaHN/J xid mice immunized with 21 μg s.c. in CFA plus 100 μg IP boost; IV challenge 140 CFU WU2", "method": "Twenty CBA/CaHN/J mice carrying the xid mutation were injected according to the following protocol:\n1. All mice were bled prior to immunization to establish baseline immunity. Ten test mice were immunized subcutaneously in four sites with a total of 21 μg of 37-kDa protein antigen (pneumococcal fimbrial protein A) emulsified in Complete Freund's adjuvant (CFA). Ten control mice were immunized identically with CFA and buffer substituting for the antigen.\n2. Fourteen days later, the mice were boosted intraperitoneally (IP) with 100 μg of the 37-kDa protein antigen (test mice) or with buffer (controls). No adjuvant was used with this booster immunization.\n3. Eight days later, all mice were bled via the infraorbital sinus and the were collected and pooled into the two groups (immunized and controls). At the same time, blood was collected from individual mice to assay for antibody responses.\n6. At the same time, the eighteen (8 test and 10 control) mice were challenged I.V with the same culture of WU2.\n7. Deaths were tallied daily."}}, "data": [{"molecule": "37-kDa protein: 37-kDa species-common S. pneumoniae protein, pneumococcal surface adhesin A (PsaA), used as immunogen (protein) CASGKKDTTSGQKLKVVATNSIIADITKNIAGDKIDLHSIVPIGQDPHEYEPLPEDVKKTSEADLIFYNGINLETGGNAWFTKLVENAKKTENKDYFAVSDGVDVIYLEGQNEKGKEDPHAWLNLENGIIFAKNIAKQLSAKDPNNKEFYEKNLKEYTDKLDKLDKESKDKFNKIPAEKKLIVTSEGAFKYFSKAYGVPSAYIWEINTEEEGTPEQIKTLVEKLRQTKVPSLFVESSVDDRPMKTVSQDTNIPIYAQIFTDSIAEQGKEGDSYYSMMKYNLDKIAEGLAK", "values": [{"measurement": "survived (mice surviving/total)", "setting": "[1]", "value": "10/10"}, {"measurement": "No. Dead/Total No. Challenged", "setting": "[2]", "value": "0/8"}]}]}
